Drawing on publication PMC7975240, this text covers Kd for one substance.

The target of the assay is SARS-CoV-2 spike trimer (1–1208 aa) (SARS-CoV-2) (UniProt P0DTC2). As to the kind of experiment: SPR.

Broadly, the Kd is the constant that tells how readily two partners part at equilibrium. The substance “Toll-like receptor 4 (TLR4) (from UniProt O00206 24-839)” registered a Kd of 300 nM.
